Experimental data as given in patent US20080213836.
Residue numbers refer to the chain shown, from its start. Names may count otherwise.

T1: Boc-Glu(OBzl)-Ala-Arg-MCA
T1 chain: EAR

T2: Gly-Asp-Asp-Asp-Asp-Lys-β-naphthylamide
T2 chain: GDDDDK

T3: Pro-Phe-Arg-MCA
T3 chain: PFR

T4: Z-Phe-Arg-MCA
T4 chain: FR

B1: Medaka EP-1 serine protease domain mutant K63A (protein)
chain: VVGGVNAEKGAWPWMVSLHWRGRHGCGASLIGRDWLLTAAHCVYGANTHLQYWSAVLGLHAQSSMNSQEVQIRQVDRIIINKNYNRRTKEADIAMMHLQQPVNFTEWVLPVCLASEDQHFPAGRRCFIAGWGRDAEGGSLPDILQEAEVPLVDQDECQRLLPEYTFTSSMLCAGYPEGGVDSCQGDSGGPLMCLEDARWTLIGVTSFGVGCGRPERPGAYARVSAFTSWIAETRRSSFSDLD
B2: Medaka EP-1 serine protease domain mutant F144A (protein)
chain: B1 chain with A46K, F127A
B3: Medaka EP-1 serine protease domain mutant K63E (protein)
chain: B1 chain with A46E
B4: Medaka EP-1 serine protease domain mutant T105R (protein)
chain: B1 chain with A46K, T88R
B5: Medaka EP-1 serine protease domain mutant P193A (protein)
chain: B1 chain with A46K, P176A
B6: Medaka EP-1 serine protease domain mutant E173K (protein)
chain: B1 chain with A46K, E156K
B7: Medaka EP-1 serine protease domain mutant T105A (protein)
chain: B1 chain with A46K, T88A
B8: Medaka EP-1 serine protease domain mutant F144S (protein)
chain: B1 chain with A46K, F127S

Biological target: T1, Boc-Glu(OBzl)-Ala-Arg-MCA

Protein	enzyme activity against wild-type
B1	The same held true for all the other mutants except for F144A
B2	hydrolyzed the GD4K-βNA as well as the three MCA-containing substrates at an elevated rate when compared with the wild-type enzyme
B3	The same held true for all the other mutants except for F144A
B4	The same held true for all the other mutants except for F144A
B5	The same held true for all the other mutants except for F144A
B6	consistently resulted in reduced enzyme activity for synthetic peptide substrates
B7	The same held true for all the other mutants except for F144A
B8	consistently resulted in reduced enzyme activity for synthetic peptide substrates

Biological target: T2, Gly-Asp-Asp-Asp-Asp-Lys-β-naphthylamide

Protein	enzyme activity against wild-type
B1	The same held true for all the other mutants except for F144A
B2	hydrolyzed the GD4K-βNA as well as the three MCA-containing substrates at an elevated rate when compared with the wild-type enzyme
B3	The same held true for all the other mutants except for F144A
B4	The same held true for all the other mutants except for F144A
B5	The same held true for all the other mutants except for F144A
B6	consistently resulted in reduced enzyme activity for synthetic peptide substrates
B7	The same held true for all the other mutants except for F144A
B8	consistently resulted in reduced enzyme activity for synthetic peptide substrates

Biological target: T3, Pro-Phe-Arg-MCA

Protein	enzyme activity against wild-type
B1	The same held true for all the other mutants except for F144A
B2	hydrolyzed the GD4K-βNA as well as the three MCA-containing substrates at an elevated rate when compared with the wild-type enzyme
B3	The same held true for all the other mutants except for F144A
B4	The same held true for all the other mutants except for F144A
B5	The same held true for all the other mutants except for F144A
B6	consistently resulted in reduced enzyme activity for synthetic peptide substrates
B7	The same held true for all the other mutants except for F144A
B8	consistently resulted in reduced enzyme activity for synthetic peptide substrates

Biological target: T4, Z-Phe-Arg-MCA

Protein	enzyme activity against wild-type
B1	The same held true for all the other mutants except for F144A
B2	hydrolyzed the GD4K-βNA as well as the three MCA-containing substrates at an elevated rate when compared with the wild-type enzyme
B3	The same held true for all the other mutants except for F144A
B4	The same held true for all the other mutants except for F144A
B5	The same held true for all the other mutants except for F144A
B6	consistently resulted in reduced enzyme activity for synthetic peptide substrates
B7	The same held true for all the other mutants except for F144A
B8	consistently resulted in reduced enzyme activity for synthetic peptide substrates

biological target: recombinant fusion protein of Medaka trypsinogen

Protein	conversion of trypsinogen to active enzyme
B1	A total of 12 mutants could convert the recombinant Medaka trypsinogen to its active enzyme (data not shown)
B2	A total of 12 mutants could convert the recombinant Medaka trypsinogen to its active enzyme (data not shown)
B3	A total of 12 mutants could convert the recombinant Medaka trypsinogen to its active enzyme (data not shown)
B4	A total of 12 mutants could convert the recombinant Medaka trypsinogen to its active enzyme (data not shown)
B5	A total of 12 mutants could convert the recombinant Medaka trypsinogen to its active enzyme (data not shown)
B6	A total of 12 mutants could convert the recombinant Medaka trypsinogen to its active enzyme (data not shown)
B7	A total of 12 mutants could convert the recombinant Medaka trypsinogen to its active enzyme (data not shown)
B8	A total of 12 mutants could convert the recombinant Medaka trypsinogen to its active enzyme (data not shown)
